Results as given in patent US20250019439A1 (Adimab, published 2025).

Tests used:
ADI-70326 = biological target: T1, ADI-70326; test: SPR Carterra, yeast anti-ID
T1 construct: anti-CD3 antibody made in CHO cells, captured by anti-human Fc
Description: (§1) Kinetic analysis was conducted at 25° C. in an HBSTE running buffer system (Carterra Cat #3630) using a Carterra LSA (Carterra USA, Salt Lake City, UT). The sample compartment was maintained at 20° C. for the duration of each experiment.
(§2) For antibody capture experiments, a goat anti-human Fc antibody (Jackson ImmunoResearch) was covalently coupled to an HC30M sensor chip surface via standard amine coupling (1:1 EDC:NHS) and then blocked with ethanolamine (1.0 M, pH 8.5). Covalent coupling steps were performed in 25 mM MES buffer (Carterra, Cat #3625) plus 0.05% Tween20. The anti-CD3 antibodies (100 nM in running buffer) were flowed over discrete regions of interest on the chip surface for 5 minutes. […] Dissociation of the anti-idiotype antibodies was monitored for 300s. Several blank buffer samples were injected over the entire chip surface at the start of each non-regenerative kinetic cycle. The preceding blank buffer injection was used for blank surface subtraction. At the end of each non-regenerative kinetic cycle, all surfaces were regenerated via two 30s injections of 10 mM glycine, pH 1.7.
(§3) For data processing and fitting, sensorgrams were double reference subtracted with a baseline drift correction of 4 RU. Sensorgrams were y-aligned and baseline corrected, filtered and cropped to include only the association and dissociation steps. Data was fitted to a 1:1 binding model using Carterra Kinetics Data Analysis software version 1.7.1.3055.

ADI-70327 = biological target: T2, ADI-70327; test: SPR Carterra, yeast anti-ID
T2 construct: anti-CD3 antibody made in CHO cells, captured by anti-human Fc
Description: as §1, §2, §3

ADI-70330 = biological target: T3, ADI-70330; test: SPR Carterra, yeast anti-ID
T3 construct: anti-CD3 antibody made in CHO cells, captured by anti-human Fc
Description: as §1, §2, §3

ADI-67445 = biological target: T4, ADI-67445; test: SPR Carterra, yeast anti-ID
T4 construct: anti-CD3 antibody made in CHO cells, captured by anti-human Fc
Description: as §1, §2, §3

ADI-26909 = biological target: T5, ADI-26909; test: SPR Carterra, yeast anti-ID
T5 construct: anti-CD3 antibody made in CHO cells, captured by anti-human Fc
Description: as §1, §2, §3

ADI-26921 IgG = biological target: T6, ADI-26921 IgG; test: SPR Carterra, yeast anti-ID
T6 construct: anti-CD3 IgG
Description: as §1, §2, §3

ADI-26915 = biological target: T7, ADI-26915; test: SPR Carterra, yeast anti-ID
T7 construct: anti-CD3 antibody made in CHO cells, captured by anti-human Fc
Description: as §1, §2, §3

ADI-48587 = biological target: T8, ADI-48587; test: SPR Carterra, yeast anti-ID
T8 construct: pH-dependent anti-CD3 antibody made in CHO cells
Description: as §1, §2, §3

CTL-62223 = biological target: T9, CTL-62223; test: SPR Carterra, yeast anti-ID
T9 construct: also called mosunetuzumab
Description: as §1, §2, §3

CTL-62227 = biological target: T10, CTL-62227; test: SPR Carterra, yeast anti-ID
T10 construct: also called odronextamab
Description: as §1, §2, §3

CTL-62228 = biological target: T11, CTL-62228; test: SPR Carterra, yeast anti-ID
T11 construct: also called glofitamab
Description: as §1, §2, §3

CTL-62240 = biological target: T12, CTL-62240; test: SPR Carterra, yeast anti-ID
T12 construct: also called ONO-4685
Description: as §1, §2, §3

ADI-50024 = biological target: T13, ADI-50024; test: SPR Carterra avidity, yeast anti-ID
T13 construct: anti-CD3 antibody made in CHO cells, captured by anti-human Fc
Description: as §1, §2, §3

ADI-67450 = biological target: T14, ADI-67450; test: SPR Carterra avidity, yeast anti-ID
T14 construct: anti-CD3 antibody made in CHO cells, captured by anti-human Fc
Description: as §1, §2, §3

ADI-67447 = biological target: T15, ADI-67447; test: SPR Carterra avidity, yeast anti-ID
T15 construct: anti-CD3 antibody made in CHO cells, captured by anti-human Fc
Description: as §1, §2, §3

ADI-26913 IgG = biological target: T16, ADI-26913 IgG; test: SPR Carterra avidity, yeast anti-ID
T16 construct: anti-CD3 IgG
Description: as §1, §2, §3

ADI-26919 = biological target: T17, ADI-26919; test: SPR Carterra avidity, yeast anti-ID
T17 construct: anti-CD3 antibody made in CHO cells, captured by anti-human Fc
Description: as §1, §2, §3

ADI-26916 IgG = biological target: T18, ADI-26916 IgG; test: SPR Carterra avidity, yeast anti-ID
T18 construct: anti-CD3 IgG
Description: as §1, §2, §3

ADI-26912 = biological target: T19, ADI-26912; test: SPR Carterra avidity, yeast anti-ID
T19 construct: anti-CD3 antibody made in CHO cells, captured by anti-human Fc
Description: as §1, §2, §3

ADI-26924 = biological target: T20, ADI-26924; test: SPR Carterra avidity, yeast anti-ID
T20 construct: anti-CD3 antibody made in CHO cells, captured by anti-human Fc
Description: as §1, §2, §3

ADI-26943 = biological target: T21, ADI-26943; test: SPR Carterra avidity, yeast anti-ID
T21 construct: anti-CD3 antibody made in CHO cells, captured by anti-human Fc
Description: as §1, §2, §3

ADI-48576 = biological target: T22, ADI-48576; test: SPR Carterra avidity, yeast anti-ID
T22 construct: pH-dependent anti-CD3 antibody made in CHO cells
Description: as §1, §2, §3

ADI-48592 = biological target: T23, ADI-48592; test: SPR Carterra avidity, yeast anti-ID
T23 construct: pH-dependent anti-CD3 antibody made in CHO cells
Description: as §1, §2, §3

ADI-48650 = biological target: T24, ADI-48650; test: SPR Carterra avidity, yeast anti-ID
T24 construct: pH-dependent anti-CD3 antibody made in CHO cells
Description: as §1, §2, §3

ADI-74965 = biological target: T25, ADI-74965; test: SPR Carterra avidity, yeast anti-ID
T25 construct: pH-dependent anti-CD3 antibody made in CHO cells
Description: as §1, §2, §3

ADI-74966 = biological target: T26, ADI-74966; test: SPR Carterra avidity, yeast anti-ID
T26 construct: pH-dependent anti-CD3 antibody made in CHO cells
Description: as §1, §2, §3

ADI-74967 = biological target: T27, ADI-74967; test: SPR Carterra avidity, yeast anti-ID
T27 construct: pH-dependent anti-CD3 antibody made in CHO cells
Description: as §1, §2, §3

ADI-74968 = biological target: T28, ADI-74968; test: SPR Carterra avidity, yeast anti-ID
T28 construct: pH-dependent anti-CD3 antibody made in CHO cells
Description: as §1, §2, §3

ADI-76358 = biological target: T29, ADI-76358; test: SPR Carterra avidity, yeast anti-ID
T29 construct: anti-CD3 antibody made in CHO cells, captured by anti-human Fc
Description: as §1, §2, §3

ADI-76359 = biological target: T30, ADI-76359; test: SPR Carterra avidity, yeast anti-ID
T30 construct: anti-CD3 antibody made in CHO cells, captured by anti-human Fc
Description: as §1, §2, §3

ADI-76360 = biological target: T31, ADI-76360; test: SPR Carterra avidity, yeast anti-ID
T31 construct: anti-CD3 antibody made in CHO cells, captured by anti-human Fc
Description: as §1, §2, §3

ADI-76361 = biological target: T32, ADI-76361; test: SPR Carterra avidity, yeast anti-ID
T32 construct: anti-CD3 antibody made in CHO cells, captured by anti-human Fc
Description: as §1, §2, §3

ADI-76362 = biological target: T33, ADI-76362; test: SPR Carterra avidity, yeast anti-ID
T33 construct: anti-CD3 antibody made in CHO cells, captured by anti-human Fc
Description: as §1, §2, §3

ADI-22523 Fab = biological target: T34, ADI-22523 Fab; test: BLI; tip anti-ID IgG, solution ADI-22523 Fab
T34 construct: anti-CD3 Fab by papain digestion of the IgG
Description: (§4) ForteBio affinity measurements were performed generally as previously described (Estep et al., MAbs. 2013 5(2):270-8). Briefly, ForteBio affinity measurements were performed by loading antibody IgG or Fabs on-line onto AHC sensors. Sensors were equilibrated off-line in assay buffer for 30 minutes and then monitored on-line for 60 seconds for baseline establishment. For avid binding measurement, sensors with loaded antibodies were exposed to IgG or Fab solutions for 3 minutes, afterwards they were transferred to assay buffer for 3 minutes for off-rate measurement. Kinetics data were fit using a 1:1 binding model in the data analysis software provided by ForteBio to obtain equilibrium dissociation constant (KD=koff/kₒₙ) values. In each column, tip-immobilized antibodies are listed first and solution antibodies second.

ADI-22523 IgG = biological target: T35, ADI-22523 IgG; test: BLI; tip anti-ID IgG, solution ADI-22523 IgG
T35 construct: anti-CD3 IgG
Description: as §4

ADI-26906 IgG = biological target: T36, ADI-26906 IgG; test: SPR Carterra avidity, yeast anti-ID, *koff limit
T36 construct: anti-CD3 IgG
Description: as §1, §2, §3

ADI-26920 IgG = biological target: T37, ADI-26920 IgG; test: SPR Carterra avidity, yeast anti-ID, *koff limit
T37 construct: anti-CD3 IgG
Description: as §1, §2, §3

ADI-76357 = biological target: T38, ADI-76357; test: SPR Carterra avidity, yeast anti-ID, *koff limit
T38 construct: anti-CD3 antibody made in CHO cells, captured by anti-human Fc
Description: as §1, §2, §3

T28 sequence (VH, as listed by the source, chain 1 of 2): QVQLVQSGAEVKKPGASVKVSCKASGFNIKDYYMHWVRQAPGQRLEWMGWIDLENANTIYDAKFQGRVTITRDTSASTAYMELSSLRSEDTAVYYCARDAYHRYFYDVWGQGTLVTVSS
T28 sequence (VL, as listed by the source, chain 2 of 2): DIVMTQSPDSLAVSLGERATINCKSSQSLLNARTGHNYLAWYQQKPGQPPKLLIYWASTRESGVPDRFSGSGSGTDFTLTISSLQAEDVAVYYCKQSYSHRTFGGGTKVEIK
T25 sequence (VL, as listed by the source, chain 2 of 2): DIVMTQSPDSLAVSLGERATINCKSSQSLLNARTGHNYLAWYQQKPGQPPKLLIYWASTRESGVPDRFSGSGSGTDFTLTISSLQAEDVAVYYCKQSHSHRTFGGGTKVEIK
T32 sequence (VH, as listed by the source, chain 1 of 2): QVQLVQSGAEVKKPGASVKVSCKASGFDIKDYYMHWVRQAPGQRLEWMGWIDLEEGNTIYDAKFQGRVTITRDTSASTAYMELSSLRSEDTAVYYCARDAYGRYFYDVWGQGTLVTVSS
T32 sequence (VL, as listed by the source, chain 2 of 2): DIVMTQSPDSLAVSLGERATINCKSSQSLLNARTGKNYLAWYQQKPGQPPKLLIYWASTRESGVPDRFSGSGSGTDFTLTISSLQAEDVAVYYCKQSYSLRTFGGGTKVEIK
T17 sequence (VH, as listed by the source limits assumed, chain 1 of 2): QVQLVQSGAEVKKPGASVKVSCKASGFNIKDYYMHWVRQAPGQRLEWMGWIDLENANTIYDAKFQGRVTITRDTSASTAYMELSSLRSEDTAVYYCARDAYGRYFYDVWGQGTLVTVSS
T36 sequence (VL, as listed by the source limits assumed, chain 2 of 2): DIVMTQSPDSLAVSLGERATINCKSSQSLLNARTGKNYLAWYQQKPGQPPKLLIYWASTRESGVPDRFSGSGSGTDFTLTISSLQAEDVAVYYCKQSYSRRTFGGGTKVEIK
T18 sequence (VH, as listed by the source, chain 1 of 2): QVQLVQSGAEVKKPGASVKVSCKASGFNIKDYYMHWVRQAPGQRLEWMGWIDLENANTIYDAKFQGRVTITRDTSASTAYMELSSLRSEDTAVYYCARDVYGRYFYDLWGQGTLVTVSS
T27 sequence (VH, as listed by the source, chain 1 of 2): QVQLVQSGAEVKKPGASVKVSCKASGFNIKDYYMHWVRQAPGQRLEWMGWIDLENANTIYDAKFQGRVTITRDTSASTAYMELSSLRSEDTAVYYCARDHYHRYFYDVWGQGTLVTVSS
T27 sequence (VL, as listed by the source, chain 2 of 2): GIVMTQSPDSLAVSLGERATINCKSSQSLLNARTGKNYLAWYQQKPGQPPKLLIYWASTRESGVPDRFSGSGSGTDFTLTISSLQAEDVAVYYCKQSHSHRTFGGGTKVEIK
T7 sequence (VH, as listed by the source, chain 1 of 2): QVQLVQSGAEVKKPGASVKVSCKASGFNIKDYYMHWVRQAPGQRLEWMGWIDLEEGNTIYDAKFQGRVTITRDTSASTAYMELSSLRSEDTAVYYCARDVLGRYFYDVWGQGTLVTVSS
T29 sequence (VH, as listed by the source, chain 1 of 2): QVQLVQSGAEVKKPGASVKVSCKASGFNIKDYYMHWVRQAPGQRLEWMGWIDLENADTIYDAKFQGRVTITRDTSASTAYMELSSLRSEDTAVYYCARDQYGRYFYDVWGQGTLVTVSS
T38 sequence (VH, as listed by the source, chain 1 of 2): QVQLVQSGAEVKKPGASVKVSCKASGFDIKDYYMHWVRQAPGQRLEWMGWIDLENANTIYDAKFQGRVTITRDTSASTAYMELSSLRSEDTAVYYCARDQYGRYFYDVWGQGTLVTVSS
T21 sequence (VH, as listed by the source, chain 1 of 2): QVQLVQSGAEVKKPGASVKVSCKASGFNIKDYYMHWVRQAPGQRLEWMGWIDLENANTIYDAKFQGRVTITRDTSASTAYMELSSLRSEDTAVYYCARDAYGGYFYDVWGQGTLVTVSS
T21 sequence (VL, as listed by the source, chain 2 of 2): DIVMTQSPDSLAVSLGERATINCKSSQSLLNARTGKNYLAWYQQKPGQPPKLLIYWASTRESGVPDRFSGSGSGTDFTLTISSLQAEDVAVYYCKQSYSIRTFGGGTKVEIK
T14 sequence (VH, as listed by the source limits assumed, chain 1 of 2): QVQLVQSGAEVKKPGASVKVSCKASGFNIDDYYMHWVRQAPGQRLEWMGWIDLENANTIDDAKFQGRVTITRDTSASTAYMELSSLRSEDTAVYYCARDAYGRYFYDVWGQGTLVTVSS
T3 sequence (VH, as listed by the source limits assumed, chain 1 of 2): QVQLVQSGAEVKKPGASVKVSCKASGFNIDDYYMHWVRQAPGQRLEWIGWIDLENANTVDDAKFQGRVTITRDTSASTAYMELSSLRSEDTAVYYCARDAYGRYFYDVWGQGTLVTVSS
T3 sequence (VL, as listed by the source limits assumed, chain 2 of 2): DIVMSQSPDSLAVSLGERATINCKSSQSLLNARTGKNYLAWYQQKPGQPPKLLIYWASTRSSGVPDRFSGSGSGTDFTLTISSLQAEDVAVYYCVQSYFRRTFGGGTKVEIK
T23 sequence (VH, as listed by the source, chain 1 of 2): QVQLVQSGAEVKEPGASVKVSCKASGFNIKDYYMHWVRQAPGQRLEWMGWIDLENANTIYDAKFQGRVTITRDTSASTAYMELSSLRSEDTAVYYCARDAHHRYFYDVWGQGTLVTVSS
T23 sequence (VL, as listed by the source, chain 2 of 2): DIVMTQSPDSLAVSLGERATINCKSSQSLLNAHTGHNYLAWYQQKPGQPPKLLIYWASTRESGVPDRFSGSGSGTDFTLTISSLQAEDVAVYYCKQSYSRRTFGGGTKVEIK
T13 sequence (VH, as listed by the source limits assumed, chain 1 of 2): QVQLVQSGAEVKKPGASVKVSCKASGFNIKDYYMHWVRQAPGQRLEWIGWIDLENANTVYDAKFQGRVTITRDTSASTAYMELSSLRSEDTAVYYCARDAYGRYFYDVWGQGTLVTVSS
T4 sequence (VH, as listed by the source limits assumed, chain 1 of 2): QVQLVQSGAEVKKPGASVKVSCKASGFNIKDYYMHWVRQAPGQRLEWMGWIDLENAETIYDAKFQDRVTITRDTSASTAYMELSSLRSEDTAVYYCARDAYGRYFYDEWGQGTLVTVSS

B1: ADI-34142 (antibody, V domains shown)
VH: EVQLLESGGGLVQPGGSLRLSCAASGFTFSSYAMSWVRQAPGKGLEWVSTISGSGGSTYYADSVKGRFTISRDNSKNTLYLQMNSLRAEDTAVYYCARLGGRRGSGSSYYYYYGMDVWGQGTTVTVSS
VL: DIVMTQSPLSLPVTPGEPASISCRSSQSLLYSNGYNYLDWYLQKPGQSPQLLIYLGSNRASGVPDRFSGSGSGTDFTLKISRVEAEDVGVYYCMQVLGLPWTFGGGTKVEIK
notes: anti-ID IgG
B1: no binding (tested: up to 200 nM) (ADI-70326); no binding (tested: up to 200 nM) (ADI-70327); no binding (tested: up to 200 nM) (ADI-70330). B1: no binding (tested: up to 200 nM) (ADI-67445); no binding (tested: up to 200 nM) (ADI-26909); no binding (tested: up to 200 nM) (ADI-26921 IgG). B1: no binding (tested: up to 200 nM) (ADI-26915); no binding (tested: up to 200 nM) (ADI-48587); no binding (tested: up to 200 nM) (CTL-62223). B1: no binding (tested: up to 200 nM) (CTL-62227); no binding (tested: up to 200 nM) (CTL-62228); no binding (tested: up to 200 nM) (CTL-62240). For the same binder, the binding result (ADI-50024) was “binds”, the binding result (ADI-67450) was “binds” and the Kd (ADI-67447) was 21 nM. The Kd (ADI-26913 IgG) was 11 nM, the Kd (ADI-26919) was 18 nM and the Kd (ADI-26916 IgG) was 21 nM. The binding result (ADI-26912) was “binds”, the Kd (ADI-26924) was 32 nM and the Kd (ADI-26943) was 6.5 nM. The Kd (ADI-48576) was 76 nM, the binding result (ADI-48592) was “binds” and the binding result (ADI-48650) was “binds”. B1: binds (ADI-74965); binds (ADI-74966); binds (ADI-74967). The Kd (ADI-74968) was 45 nM, the binding result (ADI-76358) was “binds” and the Kd (ADI-76359) was 7.3 nM. For the same binder, the Kd (ADI-76360) was 36 nM, the binding result (ADI-76361) was “binds” and the binding result (ADI-76362) was “binds”. It also gave a Kd (ADI-22523 Fab) of 14.7 nM, a Kd (ADI-22523 IgG) of 4.11 nM and a Kd (ADI-26906 IgG) of 12 nM. The Kd (ADI-26920 IgG) was 6.1 nM and the Kd (ADI-76357) was 5.7 nM.
